Test results published in US20170306048A1 (SORRENTO THERAPEUTICS, published 2017).
Where “and” joins values, the source holds several entries; their conditions need not be identical. Identical values can stand only once.

Columns and labels:
[1] = molecular target: T1, recombinant human STAT3 protein (human, UniProt P40763 1-770, limits assumed); assay: ELISA in Superblock buffer, OD 450 nm; antigen named neither on the sheet nor in legend paragraph 54, taken as the antibody's antigen STAT3, ng/ml is the unit of the x axis
T1 construct: also called recombinant human STAT3 proteins; antigen
T1 sequence (P40763 whole entry): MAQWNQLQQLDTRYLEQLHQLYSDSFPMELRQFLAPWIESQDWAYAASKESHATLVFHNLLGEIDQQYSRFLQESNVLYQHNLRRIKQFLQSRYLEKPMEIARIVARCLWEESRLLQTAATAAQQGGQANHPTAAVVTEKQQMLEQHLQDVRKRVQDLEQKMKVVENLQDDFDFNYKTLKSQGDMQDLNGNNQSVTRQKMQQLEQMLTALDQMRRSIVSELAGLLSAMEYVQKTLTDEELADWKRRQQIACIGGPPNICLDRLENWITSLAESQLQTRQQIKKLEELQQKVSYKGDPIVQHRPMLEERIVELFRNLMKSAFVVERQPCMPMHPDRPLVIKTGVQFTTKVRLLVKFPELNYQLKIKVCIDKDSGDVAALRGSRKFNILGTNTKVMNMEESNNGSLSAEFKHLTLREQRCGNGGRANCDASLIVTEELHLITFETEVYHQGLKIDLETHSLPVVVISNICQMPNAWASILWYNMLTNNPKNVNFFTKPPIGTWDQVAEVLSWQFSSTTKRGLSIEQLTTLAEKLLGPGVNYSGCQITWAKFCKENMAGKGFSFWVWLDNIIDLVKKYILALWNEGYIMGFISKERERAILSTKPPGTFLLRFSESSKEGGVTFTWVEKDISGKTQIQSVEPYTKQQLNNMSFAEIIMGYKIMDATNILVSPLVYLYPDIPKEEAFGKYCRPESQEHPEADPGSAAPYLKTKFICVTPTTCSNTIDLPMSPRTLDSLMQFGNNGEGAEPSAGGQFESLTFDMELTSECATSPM

[2] = molecular target: T2, mouse STAT3, endogenous, in mouse cell lines CT-26 and MC-38 (mouse, UniProt P42227 2-770); assay: flow cytometry on fixed, permeabilised mouse CT-26 and MC-38 cells, PE anti-human IgG; antibody concentration not given
T2 construct: whole, on cells; Intracellular protein
T2 sequence (P42227 2-770): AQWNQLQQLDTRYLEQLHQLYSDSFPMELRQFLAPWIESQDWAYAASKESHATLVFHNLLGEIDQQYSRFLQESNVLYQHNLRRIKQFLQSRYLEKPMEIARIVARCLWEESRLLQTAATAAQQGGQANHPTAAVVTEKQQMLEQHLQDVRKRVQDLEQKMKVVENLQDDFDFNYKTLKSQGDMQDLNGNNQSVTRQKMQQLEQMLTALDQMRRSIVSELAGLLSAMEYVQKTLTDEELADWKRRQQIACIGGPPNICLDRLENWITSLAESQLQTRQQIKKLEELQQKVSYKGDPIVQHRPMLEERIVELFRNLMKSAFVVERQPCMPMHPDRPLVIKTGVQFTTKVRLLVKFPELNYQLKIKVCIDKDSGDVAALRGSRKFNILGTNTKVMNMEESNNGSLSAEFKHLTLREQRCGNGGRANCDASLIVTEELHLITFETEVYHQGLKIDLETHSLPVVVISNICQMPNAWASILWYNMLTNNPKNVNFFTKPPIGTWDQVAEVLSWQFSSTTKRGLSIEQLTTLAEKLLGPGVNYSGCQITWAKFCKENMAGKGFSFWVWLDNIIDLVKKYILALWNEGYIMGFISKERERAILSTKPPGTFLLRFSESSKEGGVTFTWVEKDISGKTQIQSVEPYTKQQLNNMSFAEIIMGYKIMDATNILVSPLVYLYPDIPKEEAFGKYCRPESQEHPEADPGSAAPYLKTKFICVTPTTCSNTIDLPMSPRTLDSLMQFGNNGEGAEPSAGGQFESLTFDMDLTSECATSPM

[3] = molecular target: T3, human STAT3, endogenous, in human cell lines (U251, MDA-MB-468, HeLa, MCF-10A, MCF-7, COLO205) (human, UniProt P40763 2-770); assay: flow cytometry (HTFC) on permeabilised U251 cells, PE anti-human IgG
T3 construct: whole, on cells; also called cellular antigens
T3 sequence (P40763 2-770): as the sequence (P42227 2-770) above, with D759E counted along it
Description: After 45 minutes at room temperature, cells were washed twice and incubated with phycoerythrin (PE) conjugated-anti-human IgG for 20 minutes at room temperature in the dark. Cells were then washed and analyzed by high throughput flow cytometry (HTFC). The results are shown in FIG. 4 for assessment of antibody binding to U251 cells.

[4] = molecular target: T1, recombinant human STAT3 protein; assay: ELISA on recombinant human STAT3 protein, Abs 450
[5] = molecular target: T4, recombinant human STAT3-GST (human, UniProt P40763 1-770, limits assumed); assay: SPR (Biacore T200), antibody captured on anti-human Fc, STAT3-GST as analyte, 1:1 model
T4 construct: Analyte in the Biacore assay; not shown: GST (glutathione S-transferase) tag
T4 sequence (P40763 whole entry): as the sequence (P40763 whole entry) above
Description: Anti-human Fc antibody (GE, BR-1008-39) was immobilized on a CM5 sensor chip to approximately 1000 RU using standard NHS/EDC coupling methodology. Antibodies (approximately 10 ug/ml) were captured for 60 seconds at a flow rate of 10 ul/min Recombinant human STAT3-GST was serially diluted 2-fold into running buffer (HBS-EP+, starting from […]). All measurements were conducted at a flow rate of 30 ul/min Surfaces were regenerated with 3M MgCl₂ (from human antibody kit) for 60 seconds. A 1:1 (Langmuir) binding model was used to fit the data.

human IgG [6] = assay: ELISA in Superblock buffer, OD 450 nm; partner not named on the sheet, legend paragraph 53 says 'to human IgG', ng/ml is the unit of the x axis
[7] = molecular target: T3, human STAT3, endogenous, in human cell …; assay: flow cytometry on PFA-fixed, methanol-permeabilised U251 cells, PE anti-human IgG, MFI (FL-2)
Description: (§1) Next, the binding of the candidate anti-STAT3 antibodies to cellular targets was tested in cell binding assays using MDA-MB-435 breast cancer cells and U251 cells. The cells were seeded overnight in a 96 well plate, then fixed with PFA and permeabilized with methanol. Cells were incubated with serial dilutions of the anti-STAT3 antibody candidates ST1A5, ST3G12 and ST5G12 for one hour and 30 minutes. Following incubation, the cells were washed and incubated for 30 minutes with phycoerythrin (PE) conjugated anti-human IgG. Fluorescence was measured on an Intellicyte high-throughput flow cytometry analyzer. […] Bevacizumab (Avastin), a monoclonal antibody that inhibits vascular endothelial growth factor A (VEGF-A) was used as a negative control.

[8] = molecular target: T1, recombinant human STAT3 protein; assay: ELISA on recombinant human STAT3 protein, absorbance at 450
[9] = molecular target: T1, recombinant human STAT3 protein; assay: STAT3 binding ELISA, Hu-IgG-Fab detection (title on the sheet), OD 450 nm, ng/ml is the unit of the x axis
human IgG [10] = assay: ELISA in Superblock buffer, OD 450 nm; partner not named on the sheet, legend paragraph 53 says 'to human IgG'; column taken as the curve ST3G12-PS superblock; unit from the x axis
[11] = molecular target: T1, recombinant human STAT3 protein; assay: ELISA in Superblock buffer, OD 450 nm; antigen named neither on the sheet nor in legend paragraph 54, taken as the antibody's antigen STAT3; unit from the x axis
[12] = molecular target: T3, human STAT3, endogenous, in human cell …; assay: flow cytometry on PFA-fixed, methanol-permeabilised MDA-MB-468 cells, PE anti-human IgG, MFI (FL-2)
Description: as §1

EC50 [1]	binding result [2]	EC50 (read off the curve) [3]	EC50 (read off the curve) [4]	Kd [5]	koff [5]	kon [5]	EC50 (human IgG [6])	EC50 (read off the curve) [7]	EC50 (read off the curve) [8]	EC50 [9]	EC50 (human IgG [10])	EC50 [11]	EC50 (read off the curve) [12]	Binder
0.0257 µg/mL	binds	~10 nM	~0.06 µg/mL	5.39 nM	0.000322 s⁻¹	59700 M⁻¹ s⁻¹	0.122 µg/mL	~4 nM	~0.007 µg/mL	0.155 µg/mL				anti-STAT3 antibody ST3G12 (naked / unmodified) (antibody, V domains shown, Fully human monoclonal antibody, detected with anti-human IgG and captured with anti-human Fc; also called Ab#1; ST3G12-unmodified) VH: QVQLVQSGAEVKKPGASVKVSCKASGYTFTSYYMHWVRQAPGQGLEWMGIINPSGGSTSYAQKFQGRVTMTRDTSTSTVYMELSSLRSEDTAVYYCARSDYVHSFDIWGQGTMVTVSS VL: QPVLTQPPSASALLGASIKLTCTLSSEHSTYTVEWYQQRPGRSPQYIMNVKSDGSYNKGDGIPDRFMGSSSGADRYLTFSNLQSDDEAEYHCGESHRIDGQVGVVFGGGTKLTVL
			~0.06 µg/mL and ~0.1 µg/mL	0.222 nM	0.00011 s⁻¹	494000 M⁻¹ s⁻¹			~0.007 µg/mL	0.153 µg/mL	0.186 µg/mL	0.0643 µg/mL		ST3G12-PS antibody conjugate (compound 901) (antibody, V domains shown, also called PS-ST3G12; Anti-STAT3-PS) VH: QVQLVQSGAEVKKPGASVKVSCKASGYTFTSYYMHWVRQAPGQGLEWMGIINPSGGSTSYAQKFQGRVTMTRDTSTSTVYMELSSLRSEDTAVYYCARSDYVHSFDIWGQGTMVTVSS VL: QPVLTQPPSASALLGASIKLTCTLSSEHSTYTVEWYQQRPGRSPQYIMNVKSDGSYNKGDGIPDRFMGSSSGADRYLTFSNLQSDDEAEYHCGESHRIDGQVGVVFGGGTKLTVL
													~5 nM	anti-STAT3 antibody ST1A5 (antibody, V domains shown, Fully human monoclonal antibody detected with anti-human IgG; also called Ab#2) VH: not shown VL: QSVLTQPPSVSKGLRQTATLTCTGNSNNVGNEGAAWLQQHQGHPPKLLSYRNFNRPSGISERFSASRSGNTASLTITGLQPEDEADYYCSAWDSSLSAWVFGGGTKLTVL
